Results taken from patent US20240277865A1 (ACADEMIA SINICA, published 2024).
Changes are numbered by the printed parent chain.

B1: CHS5 IgG (antibody, V domains shown)
VH: EVQLVESGGGLVQPGGSLRLSCAASGFTITDRTIHWVRQAPGKGLEWVASIFPTKGVTTYADSVKGRFTISADTSKNTAYLQMNSLRAEDTAVYYCARGRYWMDYWGQGTLVTVSS
VL: DIQMTQSPSSLSASVGDRVTITCRASQDVKEGVAWYQQKPGKAPKLLIDQSHRLYSGVPSRFSGSGSGTDFTLTISSLQPEDFATYYCQQYYAWPSTFGQGTKVEIKR
notes: also called IgG1-CHS5
B2: CHS7-vcMMAE (antibody, V domains shown)
VH: B1 VH with T30D, D31K, R32E, T33A, F52Y, T54H, K55S, V57F, T59L
VL: B1 VL with K30E, E31D, D49G, Q50I, S51K, H52D, R53L, A93R
notes: also called CHS7 IgG1-vcMMAE
B3: CHS8-vcMMAE (antibody, V domains shown)
VH: B1 VH with T30S, D31K, R32A, T33S, F52W, V57F, M103L
VL: B1 VL with Q50E, S51R, H52E, Y92N, A93T, S96A
notes: also called CHS8 IgG1-vcMMAE
B4: CHS8 IgG (antibody, V domains shown)
VH: B1 VH with T30S, D31K, R32A, T33S, F52W, V57F, M103L
VL: B1 VL with Q50E, S51R, H52E, Y92N, A93T, S96A
B5: CHS5-vcMMAE (antibody, V domains shown)
VH: B1 VH
VL: B1 VL
notes: also called CHS5 IgG1-vcMMAE
B6: ALA12-vcMMAE (antibody, V domains shown)
VH: B1 VH with T30G, D31N, R32W, S50L, F52W, T54E, K55S, V57A, T59L
VL: B1 VL with K30R, E31D, S51M, H52V, Y92F, A93N, S96V
notes: also called ALA12 IgG1-vcMMAE
B7: ALA12 IgG (antibody, V domains shown)
VH: B1 VH with T30G, D31N, R32W, S50L, F52W, T54E, K55S, V57A, T59L
VL: B1 VL with K30R, E31D, S51M, H52V, Y92F, A93N, S96V
B8: CHS7 IgG (antibody, V domains shown)
VH: B1 VH with T30D, D31K, R32E, T33A, F52Y, T54H, K55S, V57F, T59L
VL: B1 VL with K30E, E31D, D49G, Q50I, S51K, H52D, R53L, A93R

What follows are binders tested against MSLN expressed on the cell surface of human cancer cell lines N87 and H226 (human, UniProt Q13421 37-598) (assay: cell-based or functional assay).

Point of comparison: B7, “IgG1-AL1-PE38KDEL IC50 (nM), cell viability of N87 cells” value 0.1 nM. Against it:
- B1 — 1.7-fold lower, 0.06 nM
- B4 — 10-fold lower, 0.01 nM
- B8 — 1.7-fold lower, 0.06 nM

Point of comparison: B2, “IgG1-vcMMAE IC50 (nM), cell viability of N87 cells” value 25.9 nM. Against it:
- B3 — within 1.5-fold, 24.6 nM
- B5 — 1.7-fold lower, 15 nM
- B6 — 1.5-fold higher, 39.9 nM

These binders were tested against T1, mesothelin (MSLN) (UniProt Q13421 296-580) (assay: ELISA, MSLN coated on plate, IgG1 detected with anti-human IgG HRP).
T1 construct: also called immobilized MSLN
T1 sequence (Q13421 other isoform, or with tags, fused parts or gaps limits assumed): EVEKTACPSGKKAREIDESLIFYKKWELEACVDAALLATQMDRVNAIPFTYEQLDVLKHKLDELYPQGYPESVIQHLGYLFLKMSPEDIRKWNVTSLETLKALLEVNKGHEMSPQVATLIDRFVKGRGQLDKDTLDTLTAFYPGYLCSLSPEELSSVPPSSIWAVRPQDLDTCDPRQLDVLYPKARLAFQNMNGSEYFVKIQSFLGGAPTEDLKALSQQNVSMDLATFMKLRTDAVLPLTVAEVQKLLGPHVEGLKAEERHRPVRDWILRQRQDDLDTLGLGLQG

Point of comparison: B1, EC50 4.67 ng/mL. Against it:
- B4 — within 1.5-fold, 5.05 ng/mL
- B7 — 1.8-fold higher, 8.37 ng/mL
- B8 — 2.2-fold higher, 10.3 ng/mL

These binders were tested against T1, mesothelin (MSLN) (assay: ELISA, MSLN coated on plate, IgG1-vcMMAE detected with anti-human IgG HRP).

Point of comparison: B2, EC50 16.3 ng/mL. Against it:
- B3 — 1.8-fold lower, 9.26 ng/mL
- B5 — 1.7-fold lower, 9.56 ng/mL
- B6 — 1.6-fold lower, 10.5 ng/mL
